The values that follow come from US20120238493A1 (INDIANA UNIVERSITY RESEARCH AND TECHNOLOGY, published 2012).

*1 amine or outer side, *2 acyl side, *3 side chain or, on linkers, in order; H or OH if unused. Where no end group is shown, it is not given here. Side-chain parts run from the residue outwards. [ ]: non-standard residue; d: D form. The star is where a group is joined. γGlu = O=C(O)[C@H](CCC(=O)[*:2])N[*:1]; Palmitoyl = CCCCCCCCCCCCCCCC(=O)*; Suc = O=C(CCC(=O)[*:2])[*:1]; Aib = CC(C)(N)C(=O)O; βAla = NCCC(=O)O

T1: GIP receptor (UniProt P48546 22-466, limits assumed)
T1 sequence (looked up): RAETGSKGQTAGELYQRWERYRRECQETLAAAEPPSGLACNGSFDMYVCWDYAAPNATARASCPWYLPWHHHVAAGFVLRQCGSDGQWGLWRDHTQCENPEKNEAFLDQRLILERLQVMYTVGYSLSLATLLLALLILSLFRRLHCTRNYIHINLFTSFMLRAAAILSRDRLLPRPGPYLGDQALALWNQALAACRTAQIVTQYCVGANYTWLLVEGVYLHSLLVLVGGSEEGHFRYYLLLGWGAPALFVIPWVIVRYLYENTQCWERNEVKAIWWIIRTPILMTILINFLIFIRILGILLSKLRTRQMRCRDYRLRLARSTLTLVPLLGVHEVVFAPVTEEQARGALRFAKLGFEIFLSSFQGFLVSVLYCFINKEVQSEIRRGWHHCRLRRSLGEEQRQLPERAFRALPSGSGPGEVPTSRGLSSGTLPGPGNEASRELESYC

B1: Analog No. 37: Aib2, K10acyl, E16, Aib20, E21, L27, D28 (SEQ ID NO: 31) (peptide)
peptide: H[Aib]QGTFTSDK([γGlu-Palmitoyl])SKYLDERRA[Aib]EFVQWLLDT-NH2
modifications: N-terminus assumed
SMILES: CCCCCCCCCCCCCCCC(=O)N[C@@H](CCC(=O)NCCCC[C@H](NC(=O)[C@H](CC(=O)O)NC(=O)[C@H](CO)NC(=O)[C@@H](NC(=O)[C@H](Cc1ccccc1)NC(=O)[C@@H](NC(=O)CNC(=O)[C@H](CCC(N)=O)NC(=O)C(C)(C)NC(=O)[C@@H](N)Cc1c[nH]cn1)[C@@H](C)O)[C@@H](C)O)C(=O)N[C@@H](CO)C(=O)N[C@@H](CCCCN)C(=O)N[C@@H](Cc1ccc(O)cc1)C(=O)N[C@@H](CC(C)C)C(=O)N[C@@H](CC(=O)O)C(=O)N[C@@H](CCC(=O)O)C(=O)N[C@@H](CCCNC(=N)N)C(=O)N[C@@H](CCCNC(=N)N)C(=O)N[C@@H](C)C(=O)NC(C)(C)C(=O)N[C@@H](CCC(=O)O)C(=O)N[C@@H](Cc1ccccc1)C(=O)N[C@H](C(=O)N[C@@H](CCC(N)=O)C(=O)N[C@@H](Cc1c[nH]c2ccccc12)C(=O)N[C@@H](CC(C)C)C(=O)N[C@@H](CC(C)C)C(=O)N[C@@H](CC(=O)O)C(=O)N[C@H](C(N)=O)[C@@H](C)O)C(C)C)C(=O)O
B2: peptide of SEQ ID NO: 91 (peptide)
peptide: Y[Aib]QGTFTSDK([γGlu-γGlu-Palmitoyl])SIYLDKQAA[Aib]EFVNWLLDGGPSSGAPPPS-NH2
modifications: N-terminus assumed
SMILES: CCCCCCCCCCCCCCCC(=O)N[C@@H](CCC(=O)N[C@@H](CCC(=O)NCCCC[C@H](NC(=O)[C@H](CC(=O)O)NC(=O)[C@H](CO)NC(=O)[C@@H](NC(=O)[C@H](Cc1ccccc1)NC(=O)[C@@H](NC(=O)CNC(=O)[C@H](CCC(N)=O)NC(=O)C(C)(C)NC(=O)[C@@H](N)Cc1ccc(O)cc1)[C@@H](C)O)[C@@H](C)O)C(=O)N[C@@H](CO)C(=O)N[C@H](C(=O)N[C@@H](Cc1ccc(O)cc1)C(=O)N[C@@H](CC(C)C)C(=O)N[C@@H](CC(=O)O)C(=O)N[C@@H](CCCCN)C(=O)N[C@@H](CCC(N)=O)C(=O)N[C@@H](C)C(=O)N[C@@H](C)C(=O)NC(C)(C)C(=O)N[C@@H](CCC(=O)O)C(=O)N[C@@H](Cc1ccccc1)C(=O)N[C@H](C(=O)N[C@@H](CC(N)=O)C(=O)N[C@@H](Cc1c[nH]c2ccccc12)C(=O)N[C@@H](CC(C)C)C(=O)N[C@@H](CC(C)C)C(=O)N[C@@H](CC(=O)O)C(=O)NCC(=O)NCC(=O)N1CCC[C@H]1C(=O)N[C@@H](CO)C(=O)N[C@@H](CO)C(=O)NCC(=O)N[C@@H](C)C(=O)N1CCC[C@H]1C(=O)N1CCC[C@H]1C(=O)N1CCC[C@H]1C(=O)N[C@@H](CO)C(N)=O)C(C)C)[C@@H](C)CC)C(=O)O)C(=O)O
B3: peptide of SEQ ID NO: 90 (peptide)
peptide: H[Aib]QGTFTSDK([γGlu-γGlu-Palmitoyl])SKYLDERAAQDFVQWLLDGGPSSGAPPPS-NH2
modifications: N-terminus assumed
SMILES: CCCCCCCCCCCCCCCC(=O)N[C@@H](CCC(=O)N[C@@H](CCC(=O)NCCCC[C@H](NC(=O)[C@H](CC(=O)O)NC(=O)[C@H](CO)NC(=O)[C@@H](NC(=O)[C@H](Cc1ccccc1)NC(=O)[C@@H](NC(=O)CNC(=O)[C@H](CCC(N)=O)NC(=O)C(C)(C)NC(=O)[C@@H](N)Cc1c[nH]cn1)[C@@H](C)O)[C@@H](C)O)C(=O)N[C@@H](CO)C(=O)N[C@@H](CCCCN)C(=O)N[C@@H](Cc1ccc(O)cc1)C(=O)N[C@@H](CC(C)C)C(=O)N[C@@H](CC(=O)O)C(=O)N[C@@H](CCC(=O)O)C(=O)N[C@@H](CCCNC(=N)N)C(=O)N[C@@H](C)C(=O)N[C@@H](C)C(=O)N[C@@H](CCC(N)=O)C(=O)N[C@@H](CC(=O)O)C(=O)N[C@@H](Cc1ccccc1)C(=O)N[C@H](C(=O)N[C@@H](CCC(N)=O)C(=O)N[C@@H](Cc1c[nH]c2ccccc12)C(=O)N[C@@H](CC(C)C)C(=O)N[C@@H](CC(C)C)C(=O)N[C@@H](CC(=O)O)C(=O)NCC(=O)NCC(=O)N1CCC[C@H]1C(=O)N[C@@H](CO)C(=O)N[C@@H](CO)C(=O)NCC(=O)N[C@@H](C)C(=O)N1CCC[C@H]1C(=O)N1CCC[C@H]1C(=O)N1CCC[C@H]1C(=O)N[C@@H](CO)C(N)=O)C(C)C)C(=O)O)C(=O)O
B4: peptide of SEQ ID NO: 92 (peptide)
peptide: Y[Aib]QGTFTSDK([γGlu-γGlu-Palmitoyl])SIYLDKQAA[Aib]EFVNWLLDT-NH2
modifications: N-terminus assumed
SMILES: CCCCCCCCCCCCCCCC(=O)N[C@@H](CCC(=O)N[C@@H](CCC(=O)NCCCC[C@H](NC(=O)[C@H](CC(=O)O)NC(=O)[C@H](CO)NC(=O)[C@@H](NC(=O)[C@H](Cc1ccccc1)NC(=O)[C@@H](NC(=O)CNC(=O)[C@H](CCC(N)=O)NC(=O)C(C)(C)NC(=O)[C@@H](N)Cc1ccc(O)cc1)[C@@H](C)O)[C@@H](C)O)C(=O)N[C@@H](CO)C(=O)N[C@H](C(=O)N[C@@H](Cc1ccc(O)cc1)C(=O)N[C@@H](CC(C)C)C(=O)N[C@@H](CC(=O)O)C(=O)N[C@@H](CCCCN)C(=O)N[C@@H](CCC(N)=O)C(=O)N[C@@H](C)C(=O)N[C@@H](C)C(=O)NC(C)(C)C(=O)N[C@@H](CCC(=O)O)C(=O)N[C@@H](Cc1ccccc1)C(=O)N[C@H](C(=O)N[C@@H](CC(N)=O)C(=O)N[C@@H](Cc1c[nH]c2ccccc12)C(=O)N[C@@H](CC(C)C)C(=O)N[C@@H](CC(C)C)C(=O)N[C@@H](CC(=O)O)C(=O)N[C@H](C(N)=O)[C@@H](C)O)C(C)C)[C@@H](C)CC)C(=O)O)C(=O)O

For the first experiment, the target named is T2, glucagon receptor (UniProt P47871 26-477, limits assumed). The experiment is described as follows: cell-based or functional assay.
T2 sequence (P47871 26-477 limits assumed): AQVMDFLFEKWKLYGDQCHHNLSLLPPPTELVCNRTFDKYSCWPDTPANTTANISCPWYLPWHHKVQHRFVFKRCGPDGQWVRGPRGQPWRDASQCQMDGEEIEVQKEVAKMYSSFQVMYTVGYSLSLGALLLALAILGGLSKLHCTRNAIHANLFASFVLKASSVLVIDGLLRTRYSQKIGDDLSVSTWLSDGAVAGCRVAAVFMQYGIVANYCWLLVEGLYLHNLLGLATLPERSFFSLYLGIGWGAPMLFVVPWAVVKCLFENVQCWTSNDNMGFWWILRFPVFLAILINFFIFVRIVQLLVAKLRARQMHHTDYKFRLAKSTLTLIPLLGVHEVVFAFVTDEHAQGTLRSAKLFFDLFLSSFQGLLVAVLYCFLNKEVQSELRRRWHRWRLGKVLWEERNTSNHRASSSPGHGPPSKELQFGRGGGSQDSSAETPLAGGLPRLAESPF
On to B1, for which the “EC50 (cAMP reporter)” value amounted to 8 pM.

In another experiment the target is T3, GLP-1 receptor (UniProt P43220 24-463, limits assumed). The experiment is described as follows: cell-based or functional assay.
Take B1: the “EC50 (cAMP reporter)” value turned out to be 4.4 pM.

In another experiment the target is T1, GIP receptor. Description: cell-based or functional assay.
B1: the “EC50 (cAMP reporter)” value was 8 pM.

A further experiment concerns the target T2, glucagon receptor. The experiment is described as follows: cell-based or functional assay. The source holds these as a separate data set.
Consider B1, for which the “EC50 (cAMP reporter)” value is 8 pM.
Consider B2, for which the “EC50 (cAMP reporter)” value came out at 73 pM.
For B3, the “EC50 (cAMP reporter)” value was determined as 5.6 pM.
Consider B4, for which the “EC50 (cAMP reporter)” value is 10.5 pM.

The target in the next experiment is T3, GLP-1 receptor. Description: cell-based or functional assay. The source holds these as a separate data set.
In the case of B1, the “EC50 (cAMP reporter)” value is 4.4 pM.
Regarding B2, the “EC50 (cAMP reporter)” value worked out at 8 pM.
Take B3: the “EC50 (cAMP reporter)” value was 2.7 pM.
Same read-out and setting: the same measure for B4: 3.1 pM.

A further experiment addresses T1, GIP receptor. Description: cell-based or functional assay. This is another data set of the same source.
Consider B1, for which the “EC50 (cAMP reporter)” value was 8 pM.
On the same count and under the same terms, for B2 the value was 5 pM.
On the same count and under the same terms, the same measure for B3: 17 pM.
For the molecule B4, the “EC50 (cAMP reporter)” value came to 21 pM.

In a further experiment the target is T2, glucagon receptor. The experiment is described as follows: cell-based or functional assay. The source holds these as a separate data set.
Consider Y[Aib]EGTFTSDYSIYLDKQAA[Aib]EFVNWLLAGGPSSGAPPPSK([Suc-Palmitoyl])G-NH2 [peptide of SEQ ID NO: 140], for which the “EC50 (cAMP reporter)” value is 77 pM.
Same read-out and setting: for Y[Aib]EGTFTSDYSIYLDKQAA[Aib]EFVNWLLAGGPSSGAPPPSK([βAla-Suc-Palmitoyl])G-NH2 [peptide of SEQ ID NO: 141] the value was 58 pM; for Y[Aib]EGTFTSDYSIYLDKQAA[Aib]EFVNWLLAGGPSSGAPPPSK([Suc-C18])G-NH2 [peptide of SEQ ID NO: 142], 121 pM; for YXEGTFTSDXSIYLDKQAAXEFVNWLLAGGPSSGAPPPS (aib at 2 and 20; 4-aminoPhe at 10 acylated F(4-aminoγEγEC16); NH2) [peptide of SEQ ID NO: 143], 165 pM.
On the same count and under the same terms, for Y[Aib]EGTFTSDYSIYLDKQAA[Aib]EFVNWLLAGGPSSGAPPPSK(Palmitoyl)G-NH2 [peptide of SEQ ID NO: 139] the value was 203 pM.

The target of another experiment is T3, GLP-1 receptor. Description: cell-based or functional assay. This is another data set of the same source.
Target sequence in this assay (P43220 24-463 limits assumed): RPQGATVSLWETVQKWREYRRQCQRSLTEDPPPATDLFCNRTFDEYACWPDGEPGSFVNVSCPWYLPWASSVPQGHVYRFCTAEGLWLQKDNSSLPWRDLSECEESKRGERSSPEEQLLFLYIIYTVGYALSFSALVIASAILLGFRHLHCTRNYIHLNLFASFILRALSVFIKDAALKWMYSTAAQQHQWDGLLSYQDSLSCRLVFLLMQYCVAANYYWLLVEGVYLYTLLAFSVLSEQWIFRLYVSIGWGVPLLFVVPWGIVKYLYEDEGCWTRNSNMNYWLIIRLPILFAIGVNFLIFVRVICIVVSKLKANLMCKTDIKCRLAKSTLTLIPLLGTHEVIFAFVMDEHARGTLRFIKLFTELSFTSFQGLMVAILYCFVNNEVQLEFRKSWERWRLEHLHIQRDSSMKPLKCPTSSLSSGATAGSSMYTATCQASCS
Y[Aib]EGTFTSDYSIYLDKQAA[Aib]EFVNWLLAGGPSSGAPPPSK([Suc-Palmitoyl])G-NH2 [peptide of SEQ ID NO: 140]: the “EC50 (cAMP reporter)” value turned out to be 1 pM.
Still for that read-out and setting: for Y[Aib]EGTFTSDYSIYLDKQAA[Aib]EFVNWLLAGGPSSGAPPPSK([βAla-Suc-Palmitoyl])G-NH2 [peptide of SEQ ID NO: 141] the value was 1 pM; for Y[Aib]EGTFTSDYSIYLDKQAA[Aib]EFVNWLLAGGPSSGAPPPSK([Suc-C18])G-NH2 [peptide of SEQ ID NO: 142], 4 pM; for YXEGTFTSDXSIYLDKQAAXEFVNWLLAGGPSSGAPPPS (aib at 2 and 20; 4-aminoPhe at 10 acylated F(4-aminoγEγEC16); NH2) [peptide of SEQ ID NO: 143], 2 pM.
For the molecule Y[Aib]EGTFTSDYSIYLDKQAA[Aib]EFVNWLLAGGPSSGAPPPSK(Palmitoyl)G-NH2 [peptide of SEQ ID NO: 139], the “EC50 (cAMP reporter)” value was found to be 5 pM.

The next experiment deals with T1, GIP receptor. Description: cell-based or functional assay. The source holds these as a separate data set.
In the case of Y[Aib]EGTFTSDYSIYLDKQAA[Aib]EFVNWLLAGGPSSGAPPPSK([Suc-Palmitoyl])G-NH2 [peptide of SEQ ID NO: 140], the “EC50 (cAMP reporter)” value was 1 pM.
On the same count and under the same terms, for Y[Aib]EGTFTSDYSIYLDKQAA[Aib]EFVNWLLAGGPSSGAPPPSK([βAla-Suc-Palmitoyl])G-NH2 [peptide of SEQ ID NO: 141] the value was 2 pM; for Y[Aib]EGTFTSDYSIYLDKQAA[Aib]EFVNWLLAGGPSSGAPPPSK([Suc-C18])G-NH2 [peptide of SEQ ID NO: 142], 1 pM.
On the same count and under the same terms, the same measure for YXEGTFTSDXSIYLDKQAAXEFVNWLLAGGPSSGAPPPS (aib at 2 and 20; 4-aminoPhe at 10 acylated F(4-aminoγEγEC16); NH2) [peptide of SEQ ID NO: 143]: 3 pM; for Y[Aib]EGTFTSDYSIYLDKQAA[Aib]EFVNWLLAGGPSSGAPPPSK(Palmitoyl)G-NH2 [peptide of SEQ ID NO: 139]: 1 pM.
